The text below walks through data of PMC12781872.

The target of this assay is Dylight488-labelled Mtb RNAP core derivative (β' D359 4-azido-L-phenylalanine) (Mycobacterium tuberculosis) (UniProt P9WGZ1). The assay can be described thus: FRET or BRET.

Where “and” joins values, the source holds several entries; their conditions need not be identical. Equal entries are not always repeated.

Regarding “TMR-labelled Mtb σ^F used in the FRET competition and titration assays (from UniProt P9WGI3 1-261) (natural protein)”, the dissociation constant Kd was 21.1 nM and 2.6 nM.

The Kd is the equilibrium constant for the complex coming apart.
